B1: Table S2 B row 1656 (dsDNA)
DNA 1: CTCTGAGCAGGAAGTGACAAATCCACGCAGGGCAGG
DNA 2: CCTGCCCTGCGTGGATTTGTCACTTCCTGCTCAGAG
B2: Table S2 B row 2667 (dsDNA)
DNA 1: GGGATCTACTTCCTCTCTCGGCCTCGGGCGCTGCAC
DNA 2: GTGCAGCGCCCGAGGCCGAGAGAGGAAGTAGATCCC
B3: Table S2 B row 3509 (dsDNA)
DNA 1: CATGAGAAACATCCTGCCCAACAACCTGACTACAAG
DNA 2: CTTGTAGTCAGGTTGTTGGGCAGGATGTTTCTCATG
B4: Table S2 B row 3968 (dsDNA)
DNA 1: GCCGCCGTTTCCTGATTGGTCGTGGGTGGCTACCTC
DNA 2: GAGGTAGCCACCCACGACCAATCAGGAAACGGCGGC
B5: Table S2 B row 3031 (dsDNA)
DNA 1: CCCGGGGGCAGGAAATGTCGCCTTACCCTCAGCCTT
DNA 2: AAGGCTGAGGGTAAGGCGACATTTCCTGCCCCCGGG
B6: Table S2 B row 1859 (dsDNA)
DNA 1: GTGAACTTCCTCCCCCACTGCCTATTTTTACAGCAG
DNA 2: CTGCTGTAAAAATAGGCAGTGGGGGAGGAAGTTCAC
B7: Table S2 B row 3240 (dsDNA)
DNA 1: CTGTCCGCGACATCCGGGACCTGGGGGACCGCCGAT
DNA 2: ATCGGCGGTCCCCCAGGTCCCGGATGTCGCGGACAG
B8: Table S2 B row 771 (dsDNA)
DNA 1: AACAGGAAGTGGTCTTAGAGATCATGGGGTTCAGAG
DNA 2: CTCTGAACCCCATGATCTCTAAGACCACTTCCTGTT
B9: Table S2 B row 741 (dsDNA)
DNA 1: CAACTTCCGGGGCCGGTTGCCTGGCAACAGCAGGAG
DNA 2: CTCCTGCTGTTGCCAGGCAACCGGCCCCGGAAGTTG
B10: Table S2 B row 1623 (dsDNA)
DNA 1: ACATTTCCGTTCAGCTCAGTGTTCACGGTGCGAGAC
DNA 2: GTCTCGCACCGTGAACACTGAGCTGAACGGAAATGT
B11: Table S2 B row 1297 (dsDNA)
DNA 1: CCTAGAACCGGAAGAGAAAGGGGCTGGGGTGCAGCA
DNA 2: TGCTGCACCCCAGCCCCTTTCTCTTCCGGTTCTAGG
B12: Table S2 B row 1459 (dsDNA)
DNA 1: CAGATCCGGCGTGGACGAAGCTCGGGAACTACAACA
DNA 2: TGTTGTAGTTCCCGAGCTTCGTCCACGCCGGATCTG
B13: Table S2 B row 2874 (dsDNA)
DNA 1: TGAGCAAGTTCCTTCCTGTCTGTGCTCCAGGGTTTA
DNA 2: TAAACCCTGGAGCACAGACAGGAAGGAACTTGCTCA
B14: Table S2 B row 1396 (dsDNA)
DNA 1: GAGGAGGAAAGCGGAAGCGCTGCCCTCAGTGGTAGG
DNA 2: CCTACCACTGAGGGCAGCGCTTCCGCTTTCCTCCTC
B15: Table S2 B row 16 (dsDNA)
DNA 1: CCACTGCTTCCGCCTTCTCTGCTGGCTGAGGGGAGC
DNA 2: GCTCCCCTCAGCCAGCAGAGAAGGCGGAAGCAGTGG
B16: Table S2 B row 1777 (dsDNA)
DNA 1: CCTTCCTTCCGCTGGCAGTAACTAGGCAGTGGACAC
DNA 2: GTGTCCACTGCCTAGTTACTGCCAGCGGAAGGAAGG
B17: Table S2 B row 1635 (dsDNA)
DNA 1: GGACAGGAAGTTCCTGCAGCTTCTACCCCAAACCTA
DNA 2: TAGGTTTGGGGTAGAAGCTGCAGGAACTTCCTGTCC
B18: Table S2 B row 2356 (dsDNA)
DNA 1: CTTCTTCCTGCTGAGACTGATACAGCCCGAAAAGCT
DNA 2: AGCTTTTCGGGCTGTATCAGTCTCAGCAGGAAGAAG
B19: Table S2 B row 3759 (dsDNA)
DNA 1: AGCGGCTCCTTCCGGCGGCGCCGGTTCCCTTCCCTC
DNA 2: GAGGGAAGGGAACCGGCGCCGCCGGAAGGAGCCGCT
B20: Table S2 B row 3173 (dsDNA)
DNA 1: GACTGCACTTCCTCTGCTTCGAGGTCGGTGCTTAGC
DNA 2: GCTAAGCACCGACCTCGAAGCAGAGGAAGTGCAGTC
B21: Table S2 B row 2565 (dsDNA)
DNA 1: AGCCACATCCTGGACAAAAGCTGTTGTCTAGTAACC
DNA 2: GGTTACTAGACAACAGCTTTTGTCCAGGATGTGGCT
B22: Table S2 B row 785 (dsDNA)
DNA 1: ATAGTCTCTTCCTGTGTTGCAAATCACAGGTCCACC
DNA 2: GGTGGACCTGTGATTTGCAACACAGGAAGAGACTAT
B23: Table S2 B row 2699 (dsDNA)
DNA 1: CTCAGGAATGCGGAAGTGCTCTGTGAGCACCCACCA
DNA 2: TGGTGGGTGCTCACAGAGCACTTCCGCATTCCTGAG
B24: Table S2 B row 2744 (dsDNA)
DNA 1: TTAGCACATCCTGGGTACACAGAGCACAGCCTCCTC
DNA 2: GAGGAGGCTGTGCTCTGTGTACCCAGGATGTGCTAA
B25: Table S2 B row 2669 (dsDNA)
DNA 1: CCCCTCAGCTTCCGGGTGCTGCGCCCGAGGCCGAGA
DNA 2: TCTCGGCCTCGGGCGCAGCACCCGGAAGCTGAGGGG
B26: Table S2 B row 980 (dsDNA)
DNA 1: GCGGGCGGAAGTGCCGAGGTTGTACCTCGGCGCTGG
DNA 2: CCAGCGCCGAGGTACAACCTCGGCACTTCCGCCCGC
B27: Table S2 B row 3837 (dsDNA)
DNA 1: CTGCTTCCGGCCCCGGGGTTCGCTACCCCAAAATCC
DNA 2: GGATTTTGGGGTAGCGAACCCCGGGGCCGGAAGCAG
B28: Table S2 B row 1497 (dsDNA)
DNA 1: CAACACAGGATGTGCAGTATTATACGGCAAAGCACT
DNA 2: AGTGCTTTGCCGTATAATACTGCACATCCTGTGTTG
B29: Table S2 B row 1677 (dsDNA)
DNA 1: TGTTTTTGTTTCCGTTTACAAACTACAACAAAGGTG
DNA 2: CACCTTTGTTGTAGTTTGTAAACGGAAACAAAAACA
B30: Table S2 B row 3820 (dsDNA)
DNA 1: GGCGGCTTCCGGGATCTGCCTGGCGCTTGCTTTGTC
DNA 2: GACAAAGCAAGCGCCAGGCAGATCCCGGAAGCCGCC
B31: Table S2 B row 1200 (dsDNA)
DNA 1: GGTTCATTTCCTTTTCCTCCTTGGGGTATAAAAGAG
DNA 2: CTCTTTTATACCCCAAGGAGGAAAAGGAAATGAACC
B32: Table S2 B row 3959 (dsDNA)
DNA 1: AAGGGCAAAGTCACAGCCACTTCCGCCCAGCGCTTC
DNA 2: GAAGCGCTGGGCGGAAGTGGCTGTGACTTTGCCCTT
B33: Table S2 B row 2841 (dsDNA)
DNA 1: CCTGTTTCCTGCCATCTGCCCTTCCTTTGGGGTCAA
DNA 2: TTGACCCCAAAGGAAGGGCAGATGGCAGGAAACAGG
B34: Table S2 B row 2489 (dsDNA)
DNA 1: CCTTCCTTCCTGCTGTGTACGTTGGGGTCACAGCAC
DNA 2: GTGCTGTGACCCCAACGTACACAGCAGGAAGGAAGG
B35: Table S2 B row 2829 (dsDNA)
DNA 1: AGTGTCCGCCGCTTCCTGGTTGCGCGTCAGCGCCCA
DNA 2: TGGGCGCTGACGCGCAACCAGGAAGCGGCGGACACT
B36: Table S2 B row 2465 (dsDNA)
DNA 1: CTACGACTTCCGTGATGCCTTACGGTTGCTGTAGCC
DNA 2: GGCTACAGCAACCGTAAGGCATCACGGAAGTCGTAG
B37: Table S2 B row 526 (dsDNA)
DNA 1: TTACTTCCTGAGGGTGCACAGGCTGGGGTCGTCTAT
DNA 2: ATAGACGACCCCAGCCTGTGCACCCTCAGGAAGTAA
B38: Table S2 B row 3063 (dsDNA)
DNA 1: GTATCACTTCCTGTTTTCCTCTGTAGCTTACTGCTG
DNA 2: CAGCAGTAAGCTACAGAGGAAAACAGGAAGTGATAC
B39: Table S2 B row 1299 (dsDNA)
DNA 1: AGGAGTGTCACTTCCTCTTTCCTCACCAGAGCCTCC
DNA 2: GGAGGCTCTGGTGAGGAAAGAGGAAGTGACACTCCT
B40: Table S2 B row 559 (dsDNA)
DNA 1: GCAGCATTTCCTGACTTCTTCGCCCCTGTCGTTGCA
DNA 2: TGCAACGACAGGGGCGAAGAAGTCAGGAAATGCTGC
B41: Table S2 B row 717 (dsDNA)
DNA 1: AATCCCGGAAACGCGGATTCAGCGGAGCGCGGCGAC
DNA 2: GTCGCCGCGCTCCGCTGAATCCGCGTTTCCGGGATT
B42: Table S2 B row 1434 (dsDNA)
DNA 1: GGCCGGAAGCGCTCTCGTTGGCCCAGCGGCGCTGGA
DNA 2: TCCAGCGCCGCTGGGCCAACGAGAGCGCTTCCGGCC

Biological target: T1, ETS1 (Homo sapiens, UniProt P14921)
T1 sequence: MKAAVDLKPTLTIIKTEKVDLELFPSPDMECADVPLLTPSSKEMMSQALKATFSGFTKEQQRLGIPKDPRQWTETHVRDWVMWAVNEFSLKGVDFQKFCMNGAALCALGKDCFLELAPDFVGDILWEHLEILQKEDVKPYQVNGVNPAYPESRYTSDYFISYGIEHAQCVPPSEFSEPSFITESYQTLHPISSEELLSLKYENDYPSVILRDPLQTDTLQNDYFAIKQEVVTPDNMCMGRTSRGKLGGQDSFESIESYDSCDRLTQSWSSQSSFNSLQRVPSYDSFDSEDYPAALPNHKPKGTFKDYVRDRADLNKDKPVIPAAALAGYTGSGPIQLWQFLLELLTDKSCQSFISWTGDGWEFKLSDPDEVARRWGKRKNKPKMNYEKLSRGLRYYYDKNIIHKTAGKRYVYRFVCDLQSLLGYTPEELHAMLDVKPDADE
Test: gcPBM; 1 nM ETS1
Settings: tags: N-terminal GST (pDEST15), kept (PMC6008103); label: surface-attached array probe

Binder | binding signal
B1 | 6750 PBM fluorescence, median of replicate spots
B2 | 6350 PBM fluorescence, median of replicate spots
B3 | 5340 PBM fluorescence, median of replicate spots
B4 | 4470 PBM fluorescence, median of replicate spots
B5 | 4680 PBM fluorescence, median of replicate spots
B6 | 4830 PBM fluorescence, median of replicate spots
B7 | 8950 PBM fluorescence, median of replicate spots
B8 | 7400 PBM fluorescence, median of replicate spots
B9 | 35000 PBM fluorescence, median of replicate spots
B10 | 32300 PBM fluorescence, median of replicate spots
B11 | 4610 PBM fluorescence, median of replicate spots
B12 | 5020 PBM fluorescence, median of replicate spots
B13 | 5140 PBM fluorescence, median of replicate spots
B14 | 4360 PBM fluorescence, median of replicate spots
B15 | 8730 PBM fluorescence, median of replicate spots
B16 | 5510 PBM fluorescence, median of replicate spots
B17 | 9480 PBM fluorescence, median of replicate spots
B18 | 6230 PBM fluorescence, median of replicate spots
B19 | 6670 PBM fluorescence, median of replicate spots
B20 | 6100 PBM fluorescence, median of replicate spots
B21 | 7070 PBM fluorescence, median of replicate spots

Binder | binding signal
B22 | 7860 PBM fluorescence, median of replicate spots
B23 | 4940 PBM fluorescence, median of replicate spots
B24 | 5610 PBM fluorescence, median of replicate spots
B25 | 9110 PBM fluorescence, median of replicate spots
B26 | 4750 PBM fluorescence, median of replicate spots
B27 | 27500 PBM fluorescence, median of replicate spots
B28 | 6480 PBM fluorescence, median of replicate spots
B29 | 5730 PBM fluorescence, median of replicate spots
B30 | 8430 PBM fluorescence, median of replicate spots
B31 | 8120 PBM fluorescence, median of replicate spots
B32 | 7470 PBM fluorescence, median of replicate spots
B33 | 8210 PBM fluorescence, median of replicate spots
B34 | 5450 PBM fluorescence, median of replicate spots
B35 | 5900 PBM fluorescence, median of replicate spots
B36 | 7160 PBM fluorescence, median of replicate spots
B37 | 8570 PBM fluorescence, median of replicate spots
B38 | 30200 PBM fluorescence, median of replicate spots
B39 | 9350 PBM fluorescence, median of replicate spots
B40 | 6900 PBM fluorescence, median of replicate spots
B41 | 7670 PBM fluorescence, median of replicate spots
B42 | 6040 PBM fluorescence, median of replicate spots
